This is an account of results in PMC8611094, “RNA G-quadruplex structures control ribosomal protein production”.

Broadly, the Kd is a measure of binding affinity in units of concentration.

This data set deals with DDX3X (UniProt O00571 1-662). As to the kind of experiment: ELISA; ELISA performed as in Zyner et al. (ref 43); buffer, salt, pH and temperature not given in the material. Particulars: protein: commercial; tags: FLAG; label: 5' biotin; intramolecular G4. Background: In an ELISA, binding on a coated surface is turned into a signal by an enzyme label.
Sequence of DDX3X (O00571 whole entry): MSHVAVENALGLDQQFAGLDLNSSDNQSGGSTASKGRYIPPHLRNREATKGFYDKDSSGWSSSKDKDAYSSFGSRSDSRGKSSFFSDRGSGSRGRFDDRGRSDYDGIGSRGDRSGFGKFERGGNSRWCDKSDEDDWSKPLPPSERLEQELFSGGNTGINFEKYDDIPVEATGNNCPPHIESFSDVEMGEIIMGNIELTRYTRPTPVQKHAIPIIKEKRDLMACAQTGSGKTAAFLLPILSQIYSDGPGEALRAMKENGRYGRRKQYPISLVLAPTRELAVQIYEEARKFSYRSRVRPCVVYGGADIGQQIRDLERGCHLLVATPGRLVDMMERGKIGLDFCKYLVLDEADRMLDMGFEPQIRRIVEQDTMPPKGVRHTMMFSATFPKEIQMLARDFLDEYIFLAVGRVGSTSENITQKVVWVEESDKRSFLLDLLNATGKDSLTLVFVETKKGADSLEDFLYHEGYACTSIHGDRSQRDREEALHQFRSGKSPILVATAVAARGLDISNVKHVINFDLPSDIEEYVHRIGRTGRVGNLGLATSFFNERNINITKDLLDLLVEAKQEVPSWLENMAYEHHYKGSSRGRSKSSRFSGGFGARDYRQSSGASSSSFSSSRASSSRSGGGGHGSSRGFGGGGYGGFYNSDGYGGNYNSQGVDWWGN

B1: NRAS G4 (structured_RNA)
RNA: UGUGGGAGGGGCGGGUCUGGGUGC
B1: the Kd worked out at 18 nM.
